In patent publication US11421029 (SICHUAN KELUN BIOTECH BIOPHARMACEUTICAL, dated 2022):

T1: recombinant CTLA-4-His protein (UniProt P16410 36-161, limits assumed)
T1 construct: Obtained from Kelun-Biotech; only the UniProt entry is named; also called CLTA-4-His; not shown: His tag
T1 sequence (looked up): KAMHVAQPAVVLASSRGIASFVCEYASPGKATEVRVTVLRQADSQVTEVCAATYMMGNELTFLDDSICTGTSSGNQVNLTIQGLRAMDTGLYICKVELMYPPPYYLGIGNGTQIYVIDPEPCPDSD


Tests used:
[1] = target: T2, recombinant PDL-1-mFc protein (UniProt Q9NZQ7 19-238); experiment: ELISA: PDL-1-mFc coated, anti-human IgG-HRP detection
T2 construct: Obtained from Kelun-Biotech; only the UniProt entry is named; not shown: mFc part
Protocol: On the next day, the solution in the wells was discarded, and the wells were washed with a washing buffer (a phosphate buffer solution containing 0.05% Tween-20) for one time and the solution in the wells was discarded. PBS solution containing 2% BSA was added at 100 μl/well and the wells were blocked at […] for 2 hours. Then the solution in the well was discarded. […] The plate was incubated at 37° C. for 2 hours, then the solution in the wells was discarded and the wells were washed for three times. HRP conjugated goat anti-human IgG(H+L) was added into the plate at 100 μl/well and the plate was incubated at 37° C. for 1 hour. TMB solution was added to the wells at a concentration of 100 μl/well, and the reaction was carried out at room temperature for about 5 minutes. A stop solution at 100 μl/well was added to the plate, and then the plate was put into an ELISA plate reader reading OD450 absorbance values.

[2] = target: PDL-1 expressed on CHO-PDL-1-CD3L cells (UniProt Q9NZQ7 19-290, limits assumed); experiment: cell-based or functional assay
[3] = target: T2, recombinant PDL-1-mFc protein; experiment: competitive ELISA: PD1-hFc coated, antibody premixed with PDL-1-mFc, anti-mouse IgG-HRP detection; competitor PD1-hFc
Protocol: The recombinant PD1-hFc protein (purchased from Sino Biological Inc.) was added into a 96-well enzyme labeled plate (purchased from Thermo) at 100 ng/well, and the coating was carried out at 4° C. overnight. On the next day, the solution in the wells was discarded and wells were washed one time with washing buffer (phosphate buffer solution containing 0.05% Tween-20) and the solution in the wells was discarded again. PBS solution containing 2% BSA was added at 100 μl/well for blocking the wells at 37° C. for 2 hours, and then the solution in the wells was discarded. […] The plate was incubated at 37° C. for 2 hours, then the solution in the wells was discarded and the well was washed with the washing buffer for three times. HRP conjugated goat anti-mouse IgG(H+L) (purchased from Thermo) solution was added into the plate at 100 μl/well and the plate was incubated at 37° C. for 1 hour. TMB solution was added to the wells, and the reaction was carried out at room temperature for about 5 minutes. Stop solution was added to the plate, and then the plate was put into an ELISA instrument in order to read an OD450 light absorbance value.

[4] = target: T3, recombinant CD16a (Val) protein (UniProt P08637 17-208, limits assumed); experiment: ELISA: CD16a (Val) coated, antibody crosslinked with goat F(ab)2 anti-human kappa
T3 construct: Purchased from Sino Biological Inc. '(Val)' is printed without the position of the valine
Protocol: The recombinant CD16a (Val) protein (purchased from Sino Biological Inc.) was added into a 96-well enzyme labeled plate (purchased from Thermo) at 100 ng/well, and coating was carried out at 4° C. overnight. On the next day, the solution in the wells was discarded, the wells were washed with a washing buffer solution (a phosphate buffer solution containing 0.05% Tween-20) for one time and the solution in the wells was discarded. PBS solution containing 2% BSA was added at 100 μl/well for blocking the well at 25° C. for 2 hours, and then solution in the wells was discarded. […] The plate was incubated at 25° C. for 2 hours, then the solution in the wells was discarded and the well was washed with the washing buffer for three times. […] Then solution in the well was discarded and the well was washed with the washing buffer for five times. TMB solution was added to the well at a concentration of 100 μl/well, and the reaction was carried out at room temperature for about 30 minutes. Stop solution at 100 μl/well was added to the plate, and then the plate was put into an ELISA instrument to read OD450 absorbance values.

[5] = target: T2, recombinant PDL-1-mFc protein; experiment: bridging ELISA for both antigens at once: PDL-1-mFc coated, antibody titrated, then 1.5 ug/ml CTLA-4-His, anti-His-HRP detection
Protocol: On the next day, the solution in the wells was discarded, wells were washed one time with washing buffer (phosphate buffer solution containing 0.05% Tween-20) and solution in the well was discarded again. PBS solution containing 2% BSA was added at 100 μl/well for blocking the wells at 37° C. for 2 hours, and then solution in the wells was discarded. The recombinant bispecific antibodies were diluted 5 folds serially at a start concentration of 100000 ng/mL to get 11 concentration gradients, and were added to the wells at 100 μl/well. The plate was incubated at 37° C. for 2 hours, then the solution in the wells was discarded and wells were washed with the washing buffer for three times. 1.5 ug/ml of the CTLA-4-His protein was added into the plate at 100 μl/well, and plate was incubated at 37° C. for 2 hours. Then the solution in the wells was discarded and wells were washed with the washing buffer for three times. HRP conjugated goat anti-his (purchased from BioLegend) was added into the plate and the plate was incubated at 37° C. for 1 hour. TMB solution was added to the wells, and the reaction was carried out at room temperature for about 5 minutes. Stop solution was added to the plate, and then the plate was put into an ELISA plate reader to read OD450 absorbance values.

[6] = target: T1, recombinant CTLA-4-His protein; experiment: ELISA: CTLA-4-His batch 2 coated, anti-human IgG-HRP detection
Protocol: (§1) Two batches of recombinant CLTA-4-His proteins (obtained from Kelun-Biotech, Uniport No.: P16410) were diluted with PBS respectively, the dilutes of CTLA-4-His at 100 μl/well were added into a 96-well ELISA plate, and coating was carried out at 4° C. overnight. On the next day, the solution in the wells was discarded, and wells were washed one time with washing buffer and the solution in the wells was discarded again. PBS solution containing 2% BSA was added at 100 μl/well for blocking the well at 37° C. for 2 hours, and then the solution in the well was discarded. […] The HRP conjugated goat anti-human IgG (H+L) solution was added into the plate and the plate was incubated at 37° C. for 1 hour. TMB solution was added to the well, and the reaction was carried out at room temperature for about 8 minutes. The stop solution was added to the plate, and then the plate was put into an ELISA plate reader to read OD450 absorbance values. Fitting curves were made by the means of the experimental data, as shown in FIG. 4A and FIG. 4B, and EC50 was calculated.

[7] = target: T1, recombinant CTLA-4-His protein; experiment: ELISA: CTLA-4-His batch 1 coated, anti-human IgG-HRP detection
Protocol: as §1

[8] = target: T1, recombinant CTLA-4-His protein; experiment: ELISA: CTLA-4-His coated; reference AB02
Protocol: as §1

Sequence of PDL-1 expressed on CHO-PDL-1-CD3L cells (Q9NZQ7 19-290 limits assumed): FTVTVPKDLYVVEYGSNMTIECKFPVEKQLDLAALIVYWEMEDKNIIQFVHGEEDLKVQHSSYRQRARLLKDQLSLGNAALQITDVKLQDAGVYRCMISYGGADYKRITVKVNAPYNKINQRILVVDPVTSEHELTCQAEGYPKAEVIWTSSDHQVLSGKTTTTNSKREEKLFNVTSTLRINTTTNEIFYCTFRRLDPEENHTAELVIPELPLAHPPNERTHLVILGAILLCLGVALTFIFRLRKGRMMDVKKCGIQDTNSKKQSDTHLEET
T2 sequence (Q9NZQ7 19-238): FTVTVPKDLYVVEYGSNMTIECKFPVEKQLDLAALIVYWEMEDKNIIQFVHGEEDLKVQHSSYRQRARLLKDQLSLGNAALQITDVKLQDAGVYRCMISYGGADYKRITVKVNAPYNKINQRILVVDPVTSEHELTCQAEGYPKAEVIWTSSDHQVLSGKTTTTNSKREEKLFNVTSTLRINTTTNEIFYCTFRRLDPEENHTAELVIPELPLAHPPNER
T3 sequence (P08637 17-208 F176V limits assumed): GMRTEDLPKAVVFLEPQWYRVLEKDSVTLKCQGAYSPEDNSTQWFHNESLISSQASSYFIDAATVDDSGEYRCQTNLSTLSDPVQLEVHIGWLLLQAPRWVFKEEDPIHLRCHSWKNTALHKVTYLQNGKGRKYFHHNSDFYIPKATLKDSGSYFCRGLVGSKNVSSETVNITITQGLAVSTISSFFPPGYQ

Binder	EC50 [1]	EC50 of blocking PDL-1/PD1 in the luciferase (NFAT) reporter assay [2]	EC50 [3]	binding result [4]	EC50 [5]	EC50 [6]	EC50 [7]	EC50 as a multiple of that of AB02 [8]
anti-PDL-1 parental antibody AB01 (antibody, human IgG1, kappa, also called PDL-1 antibody AB01) heavy: not shown light: EIVLTQSPDTLSVTPKEKVTLTCRASQSIGTNIHWFQQKPGQSPKLLIKYASESISGVPSRFSGSGSGTDFTLTINSVEAEDAATYYCQQSNSWPYTFGQGTKLEIKRTVAAPSVFIFPPSDEQLKSGTASVVCLLNNFYPREAKVQWKVDNALQSGNSQESVTEQDSKDSTYSLSSTLTLSKADYEKHKVYACEVTHQGLSSPVTKSFNRGEC	0.0155 nM	1.68 nM	3.82 nM	no binding (tested: 50 ug/ml, then 3-fold dilutions)				
anti-PDL-1/CTLA-4 recombinant bispecific antibody AB03 (bispecific antibody, human IgG1, kappa, The scFv is at the N-terminus of the heavy chain; also called AB003) heavy: not shown light: EIVLTQSPDTLSVTPKEKVTLTCRASQSIGTNIHWFQQKPGQSPKLLIKYASESISGVPSRFSGSGSGTDFTLTINSVEAEDAATYYCQQSNSWPYTFGQGTKLEIKRTVAAPSVFIFPPSDEQLKSGTASVVCLLNNFYPREAKVQWKVDNALQSGNSQESVTEQDSKDSTYSLSSTLTLSKADYEKHKVYACEVTHQGLSSPVTKSFNRGEC	0.0215 nM	1.82 nM	2.6 nM	binds	0.0162 nM	0.0862 nM	0.107 nM	
anti-PDL-1/CTLA-4 recombinant bispecific antibody AB04 (bispecific antibody, human IgG1, kappa, The scFv is at the C-terminus of the heavy chain; also called AB4) heavy: not shown light: EIVLTQSPDTLSVTPKEKVTLTCRASQSIGTNIHWFQQKPGQSPKLLIKYASESISGVPSRFSGSGSGTDFTLTINSVEAEDAATYYCQQSNSWPYTFGQGTKLEIKRTVAAPSVFIFPPSDEQLKSGTASVVCLLNNFYPREAKVQWKVDNALQSGNSQESVTEQDSKDSTYSLSSTLTLSKADYEKHKVYACEVTHQGLSSPVTKSFNRGEC	0.0324 nM	1.53 nM	1.84 nM	binds	0.013 nM	0.531 nM	0.6 nM	10 to 12 times
